Measurements: the supplement of paper PMC10065799, “High-throughput profiling of sequence recognition by tyrosine kinases and SH2 domains using bacterial peptide display” (eLife, 2023)
One block for each sequence: values may come before it.

How the values were obtained:
Fer (mouse) = assay: phosphorylation enrichment, bacterial display (enrichment ratio); higher = better substrate or ligand; peptides without Tyr show the background
EPHB2 = EPHB2 (UniProt P29323); assay: as above
AncSZ = assay: as above
c-Src = assay: as above
c-Abl (mouse) = assay: as above
Fyn = Fyn (UniProt P06241); assay: as above
MERTK = MERTK (UniProt Q12866); assay: as above
FGFR1 = FGFR1 (UniProt P11362); assay: as above
Jak2 = Jak2 (UniProt O60674); assay: as above
Hck = Hck (UniProt P08631); assay: as above
FGFR3 = FGFR3 (UniProt P22607); assay: as above
Fes = Fes (UniProt P07332); assay: as above
EPHB1 = EPHB1 (UniProt P54762); assay: as above
SHP2-C SH2 = assay: SH2 binding enrichment of the phosphorylated peptide, bacterial display (enrichment ratio); higher = better substrate or ligand; peptides without Tyr show the background
Grb2 SH2 = Grb2 SH2 (UniProt P62993); assay: as above
c-Src SH2 = assay: as above
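Wherever SH2 binding enrichment of the phosphorylated peptide, bacterial display is given: peptide library displayed on the E. coli surface as eCPX fusions, selected cells deep-sequenced, score is each peptide's frequency after selection divided by its frequency in the input.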
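Wherever phosphorylation enrichment, bacterial display is given: 11-residue human phosphosite peptides and single-mutation variants displayed on the E. coli surface, counted by deep sequencing, each peptide's frequency after selection divided by its frequency in the unselected input library; frequency after pTyr selection over input frequency; kinase dosed for 20-30% of maximal phosphorylation in three min.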

Chain of FGFR3 (P22607 whole entry, looked up): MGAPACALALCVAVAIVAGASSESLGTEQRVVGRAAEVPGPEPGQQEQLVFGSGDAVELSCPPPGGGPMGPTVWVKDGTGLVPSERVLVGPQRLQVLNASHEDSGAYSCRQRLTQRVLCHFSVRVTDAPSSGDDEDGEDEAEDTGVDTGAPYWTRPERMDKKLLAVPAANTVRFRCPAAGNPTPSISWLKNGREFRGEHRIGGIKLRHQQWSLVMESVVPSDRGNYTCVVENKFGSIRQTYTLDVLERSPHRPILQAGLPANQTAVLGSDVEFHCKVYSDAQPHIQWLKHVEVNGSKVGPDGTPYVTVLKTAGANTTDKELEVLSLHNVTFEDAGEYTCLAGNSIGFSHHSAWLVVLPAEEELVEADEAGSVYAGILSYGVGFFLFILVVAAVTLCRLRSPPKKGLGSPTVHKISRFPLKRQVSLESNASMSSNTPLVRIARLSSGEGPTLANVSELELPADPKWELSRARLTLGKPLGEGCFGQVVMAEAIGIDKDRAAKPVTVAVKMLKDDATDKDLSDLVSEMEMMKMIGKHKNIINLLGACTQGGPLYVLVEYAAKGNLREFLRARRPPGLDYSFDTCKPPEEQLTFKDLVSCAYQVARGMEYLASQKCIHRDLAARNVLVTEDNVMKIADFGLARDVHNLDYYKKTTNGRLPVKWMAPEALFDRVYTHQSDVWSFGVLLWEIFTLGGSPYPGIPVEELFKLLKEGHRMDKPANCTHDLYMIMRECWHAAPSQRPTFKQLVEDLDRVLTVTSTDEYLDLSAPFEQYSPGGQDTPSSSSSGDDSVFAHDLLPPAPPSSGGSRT
Chain of FGFR1 (P11362 whole entry, looked up): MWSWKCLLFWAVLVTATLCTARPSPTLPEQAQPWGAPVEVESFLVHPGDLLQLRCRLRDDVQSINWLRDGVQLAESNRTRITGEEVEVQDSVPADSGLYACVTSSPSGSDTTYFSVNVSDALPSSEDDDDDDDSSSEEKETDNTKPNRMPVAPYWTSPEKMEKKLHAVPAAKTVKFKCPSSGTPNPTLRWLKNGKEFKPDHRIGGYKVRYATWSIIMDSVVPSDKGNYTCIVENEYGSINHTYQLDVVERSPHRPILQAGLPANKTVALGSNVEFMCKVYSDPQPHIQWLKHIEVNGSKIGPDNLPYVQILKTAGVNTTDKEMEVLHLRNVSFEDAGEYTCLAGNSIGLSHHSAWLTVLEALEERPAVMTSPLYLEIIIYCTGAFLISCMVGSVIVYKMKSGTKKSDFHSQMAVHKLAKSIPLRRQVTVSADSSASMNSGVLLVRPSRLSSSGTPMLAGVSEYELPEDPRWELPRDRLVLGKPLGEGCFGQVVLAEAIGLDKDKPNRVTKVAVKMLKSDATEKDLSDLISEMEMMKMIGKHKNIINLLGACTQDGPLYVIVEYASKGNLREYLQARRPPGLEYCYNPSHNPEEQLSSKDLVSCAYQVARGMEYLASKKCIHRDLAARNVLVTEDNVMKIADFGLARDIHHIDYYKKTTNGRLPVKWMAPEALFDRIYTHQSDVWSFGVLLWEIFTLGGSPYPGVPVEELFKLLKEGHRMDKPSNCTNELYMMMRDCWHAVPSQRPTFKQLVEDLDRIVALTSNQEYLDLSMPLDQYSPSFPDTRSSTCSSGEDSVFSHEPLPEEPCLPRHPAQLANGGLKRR
Chain of EPHB1 (P54762 whole entry, looked up): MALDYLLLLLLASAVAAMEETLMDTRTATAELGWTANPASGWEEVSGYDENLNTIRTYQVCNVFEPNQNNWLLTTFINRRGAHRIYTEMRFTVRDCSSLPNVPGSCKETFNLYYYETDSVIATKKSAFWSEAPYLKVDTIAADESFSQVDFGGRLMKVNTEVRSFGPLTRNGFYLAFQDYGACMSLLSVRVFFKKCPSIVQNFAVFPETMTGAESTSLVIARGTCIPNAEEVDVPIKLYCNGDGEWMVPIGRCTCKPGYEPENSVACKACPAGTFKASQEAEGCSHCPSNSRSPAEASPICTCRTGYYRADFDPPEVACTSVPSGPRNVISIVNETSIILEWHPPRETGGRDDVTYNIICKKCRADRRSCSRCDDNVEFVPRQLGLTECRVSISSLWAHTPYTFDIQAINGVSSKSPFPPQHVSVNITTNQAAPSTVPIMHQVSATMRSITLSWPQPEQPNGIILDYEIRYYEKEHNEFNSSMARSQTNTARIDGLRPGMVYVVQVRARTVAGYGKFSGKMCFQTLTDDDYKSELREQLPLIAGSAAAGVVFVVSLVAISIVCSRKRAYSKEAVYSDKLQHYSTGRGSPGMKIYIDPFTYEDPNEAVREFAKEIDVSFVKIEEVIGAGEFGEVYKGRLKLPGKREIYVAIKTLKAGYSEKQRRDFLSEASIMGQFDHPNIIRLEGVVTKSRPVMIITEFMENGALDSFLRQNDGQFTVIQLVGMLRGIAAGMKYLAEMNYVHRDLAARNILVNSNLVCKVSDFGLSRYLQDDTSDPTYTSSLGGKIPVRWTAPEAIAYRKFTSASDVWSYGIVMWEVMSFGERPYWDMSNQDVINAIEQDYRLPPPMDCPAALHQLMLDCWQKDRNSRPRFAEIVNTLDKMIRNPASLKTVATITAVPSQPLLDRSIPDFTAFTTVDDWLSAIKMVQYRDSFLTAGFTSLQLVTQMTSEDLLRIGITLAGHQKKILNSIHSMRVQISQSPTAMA
Chain of EPHB2 (P29323 whole entry, looked up): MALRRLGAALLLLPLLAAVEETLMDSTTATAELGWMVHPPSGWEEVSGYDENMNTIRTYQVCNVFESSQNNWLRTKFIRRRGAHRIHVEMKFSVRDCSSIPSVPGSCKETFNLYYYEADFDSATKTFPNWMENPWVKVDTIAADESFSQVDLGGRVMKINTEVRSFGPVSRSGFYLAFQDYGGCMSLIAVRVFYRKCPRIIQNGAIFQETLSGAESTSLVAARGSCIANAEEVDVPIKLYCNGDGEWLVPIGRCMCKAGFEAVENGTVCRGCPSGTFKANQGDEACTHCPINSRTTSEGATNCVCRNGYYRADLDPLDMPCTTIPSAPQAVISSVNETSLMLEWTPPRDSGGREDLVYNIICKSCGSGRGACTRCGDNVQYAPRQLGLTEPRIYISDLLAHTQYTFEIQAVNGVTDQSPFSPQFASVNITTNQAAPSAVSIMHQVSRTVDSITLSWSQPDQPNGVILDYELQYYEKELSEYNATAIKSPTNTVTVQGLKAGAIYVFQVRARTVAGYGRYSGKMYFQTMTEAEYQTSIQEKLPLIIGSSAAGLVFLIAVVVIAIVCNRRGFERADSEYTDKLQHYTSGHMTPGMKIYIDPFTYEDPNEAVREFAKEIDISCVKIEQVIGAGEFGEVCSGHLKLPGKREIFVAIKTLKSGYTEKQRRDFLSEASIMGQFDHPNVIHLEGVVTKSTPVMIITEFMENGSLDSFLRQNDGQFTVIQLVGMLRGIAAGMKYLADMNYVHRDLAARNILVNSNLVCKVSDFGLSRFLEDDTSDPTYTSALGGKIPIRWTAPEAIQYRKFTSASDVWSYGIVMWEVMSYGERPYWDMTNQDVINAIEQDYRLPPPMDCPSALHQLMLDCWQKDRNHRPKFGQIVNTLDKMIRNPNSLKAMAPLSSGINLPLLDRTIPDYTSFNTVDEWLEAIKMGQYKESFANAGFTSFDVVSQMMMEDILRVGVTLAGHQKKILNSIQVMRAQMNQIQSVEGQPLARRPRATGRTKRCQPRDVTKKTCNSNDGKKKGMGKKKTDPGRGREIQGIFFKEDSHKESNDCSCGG
Chain of Hck (P08631 whole entry, looked up): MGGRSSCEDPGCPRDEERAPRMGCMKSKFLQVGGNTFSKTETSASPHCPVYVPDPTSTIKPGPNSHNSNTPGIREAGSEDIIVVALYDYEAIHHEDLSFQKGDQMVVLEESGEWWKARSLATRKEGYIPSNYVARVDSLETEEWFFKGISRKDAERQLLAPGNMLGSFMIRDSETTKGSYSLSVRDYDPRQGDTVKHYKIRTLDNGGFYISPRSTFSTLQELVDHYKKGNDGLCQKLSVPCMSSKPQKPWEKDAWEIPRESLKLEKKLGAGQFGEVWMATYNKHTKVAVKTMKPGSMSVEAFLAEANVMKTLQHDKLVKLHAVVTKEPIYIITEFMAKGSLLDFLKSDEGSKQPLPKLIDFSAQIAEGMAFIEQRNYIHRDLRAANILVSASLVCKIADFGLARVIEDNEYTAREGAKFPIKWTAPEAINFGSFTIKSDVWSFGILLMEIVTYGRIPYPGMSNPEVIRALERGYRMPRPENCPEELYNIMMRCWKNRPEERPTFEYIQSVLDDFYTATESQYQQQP
Chain of Fyn (P06241 whole entry, looked up): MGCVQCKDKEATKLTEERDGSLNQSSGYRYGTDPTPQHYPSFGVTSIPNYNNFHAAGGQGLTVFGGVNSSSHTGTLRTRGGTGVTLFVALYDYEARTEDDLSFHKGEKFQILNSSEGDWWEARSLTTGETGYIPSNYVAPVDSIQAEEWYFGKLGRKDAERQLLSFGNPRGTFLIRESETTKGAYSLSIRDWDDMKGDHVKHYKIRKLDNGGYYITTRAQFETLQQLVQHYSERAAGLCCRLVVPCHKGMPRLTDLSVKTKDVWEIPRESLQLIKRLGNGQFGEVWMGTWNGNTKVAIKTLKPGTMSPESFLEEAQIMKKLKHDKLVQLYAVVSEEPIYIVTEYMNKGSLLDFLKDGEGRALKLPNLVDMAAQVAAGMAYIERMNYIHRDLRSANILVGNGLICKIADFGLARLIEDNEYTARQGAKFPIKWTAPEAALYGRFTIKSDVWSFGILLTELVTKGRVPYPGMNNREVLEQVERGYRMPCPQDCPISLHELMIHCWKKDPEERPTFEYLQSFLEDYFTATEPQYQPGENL

SH2 binding enrichment (SHP2-C SH2): 1.16
SH2 binding enrichment (Grb2 SH2): 1.28
SH2 binding enrichment (c-Src SH2): 1.2
Sequence: TWSPKYTLRSH [STRN3_Y474_N471S]
phosphorylation enrichment (Fer (mouse)): 0.389
phosphorylation enrichment (EPHB2): 0.477
phosphorylation enrichment (AncSZ): 0.735
phosphorylation enrichment (c-Src): 0.348
phosphorylation enrichment (c-Abl (mouse)): 0.52
phosphorylation enrichment (Fyn): 0.445
phosphorylation enrichment (MERTK): 0.426
phosphorylation enrichment (FGFR1): 0.353
phosphorylation enrichment (Jak2): 0.728
phosphorylation enrichment (Hck): 0.419
phosphorylation enrichment (FGFR3): 0.529
phosphorylation enrichment (Fes): 0.87
phosphorylation enrichment (EPHB1): 0.593

SH2 binding enrichment (SHP2-C SH2): 0.559
SH2 binding enrichment (Grb2 SH2): 0.728
SH2 binding enrichment (c-Src SH2): 0.389
Sequence: VDASFCGGRGV [ANTXR2_Y381_Y381C_YF]
phosphorylation enrichment (Fer (mouse)): 0.49
phosphorylation enrichment (EPHB2): 0.495
phosphorylation enrichment (AncSZ): 0.818
phosphorylation enrichment (c-Src): 0.413
phosphorylation enrichment (c-Abl (mouse)): 0.744
phosphorylation enrichment (Fyn): 0.405
phosphorylation enrichment (MERTK): 0.396
phosphorylation enrichment (FGFR1): 0.531
phosphorylation enrichment (Jak2): 0.894
phosphorylation enrichment (Hck): 0.539
phosphorylation enrichment (FGFR3): 0.629
phosphorylation enrichment (Fes): 1.11
phosphorylation enrichment (EPHB1): 0.514

SH2 binding enrichment (SHP2-C SH2): 0.624
SH2 binding enrichment (Grb2 SH2): 0.863
SH2 binding enrichment (c-Src SH2): 0.434
Sequence: VDSGVYAVPPP [BCAR1_Y410]
phosphorylation enrichment (Fer (mouse)): 5.46
phosphorylation enrichment (EPHB2): 19.6
phosphorylation enrichment (AncSZ): 2.04
phosphorylation enrichment (c-Src): 4.94
phosphorylation enrichment (c-Abl (mouse)): 20.9
phosphorylation enrichment (Fyn): 8.7
phosphorylation enrichment (MERTK): 9.97
phosphorylation enrichment (FGFR1): 1.2
phosphorylation enrichment (Jak2): 0.709
phosphorylation enrichment (Hck): 8.02
phosphorylation enrichment (FGFR3): 1.01
phosphorylation enrichment (Fes): 0.795
phosphorylation enrichment (EPHB1): 7.54

SH2 binding enrichment (SHP2-C SH2): 0.755
SH2 binding enrichment (Grb2 SH2): 1.21
SH2 binding enrichment (c-Src SH2): 0.791
Sequence: VHFLVYHHHHH [CACNA1H_Y519_H516Y_YF]
phosphorylation enrichment (Fer (mouse)): 0.493
phosphorylation enrichment (EPHB2): 0.661
phosphorylation enrichment (AncSZ): 0.88
phosphorylation enrichment (c-Src): 0.453
phosphorylation enrichment (c-Abl (mouse)): 0.863
phosphorylation enrichment (Fyn): 0.527
phosphorylation enrichment (MERTK): 0.388
phosphorylation enrichment (FGFR1): 0.437
phosphorylation enrichment (Jak2): 1.11
phosphorylation enrichment (Hck): 0.416
phosphorylation enrichment (FGFR3): 0.834
phosphorylation enrichment (Fes): 1.11
phosphorylation enrichment (EPHB1): 0.555

SH2 binding enrichment (SHP2-C SH2): 0.612
SH2 binding enrichment (Grb2 SH2): 0.737
SH2 binding enrichment (c-Src SH2): 0.366
Sequence: VLTSKYPGGGG [HBA1_Y141_R142P]
phosphorylation enrichment (Fer (mouse)): 0.303
phosphorylation enrichment (EPHB2): 0.374
phosphorylation enrichment (AncSZ): 0.349
phosphorylation enrichment (c-Src): 0.276
phosphorylation enrichment (c-Abl (mouse)): 0.342
phosphorylation enrichment (Fyn): 0.344
phosphorylation enrichment (MERTK): 0.392
phosphorylation enrichment (FGFR1): 0.28
phosphorylation enrichment (Jak2): 0.441
phosphorylation enrichment (Hck): 0.296
phosphorylation enrichment (FGFR3): 0.342
phosphorylation enrichment (Fes): 0.443
phosphorylation enrichment (EPHB1): 0.229

SH2 binding enrichment (SHP2-C SH2): 1.08
SH2 binding enrichment (Grb2 SH2): 1.54
SH2 binding enrichment (c-Src SH2): 1.12
Sequence: VPLLEYYWDIF [CDAN1_Y712_R714W]
phosphorylation enrichment (Fer (mouse)): 0.521
phosphorylation enrichment (EPHB2): 1.54
phosphorylation enrichment (AncSZ): 1.43
phosphorylation enrichment (c-Src): 1.67
phosphorylation enrichment (c-Abl (mouse)): 0.923
phosphorylation enrichment (Fyn): 0.879
phosphorylation enrichment (MERTK): 1.54
phosphorylation enrichment (FGFR1): 7.97
phosphorylation enrichment (Jak2): 2.12
phosphorylation enrichment (Hck): 0.813
phosphorylation enrichment (FGFR3): 6.87
phosphorylation enrichment (Fes): 1.46
phosphorylation enrichment (EPHB1): 2.27

Second part, the sequence before the results:

Sequence: TVSQPYSFIEF [SEC22B_Y110_R108Q]
phosphorylation enrichment (Fer (mouse)): 19.4
phosphorylation enrichment (EPHB2): 0.54
phosphorylation enrichment (AncSZ): 1.29
phosphorylation enrichment (c-Src): 5.66
phosphorylation enrichment (c-Abl (mouse)): 0.805
phosphorylation enrichment (Fyn): 4.91
phosphorylation enrichment (MERTK): 8.32
phosphorylation enrichment (FGFR1): 11.5
phosphorylation enrichment (Jak2): 0.933
phosphorylation enrichment (Hck): 3.08
phosphorylation enrichment (FGFR3): 8.47
phosphorylation enrichment (Fes): 3.48
phosphorylation enrichment (EPHB1): 0.878
SH2 binding enrichment (SHP2-C SH2): 10.1
SH2 binding enrichment (Grb2 SH2): 1.06
SH2 binding enrichment (c-Src SH2): 9.41

Sequence: TVSTRYTQPQP [SARG_Y259]
phosphorylation enrichment (Fer (mouse)): 0.471
phosphorylation enrichment (EPHB2): 0.427
phosphorylation enrichment (AncSZ): 0.616
phosphorylation enrichment (c-Src): 0.364
phosphorylation enrichment (c-Abl (mouse)): 0.576
phosphorylation enrichment (Fyn): 0.442
phosphorylation enrichment (MERTK): 0.394
phosphorylation enrichment (FGFR1): 0.446
phosphorylation enrichment (Jak2): 0.605
phosphorylation enrichment (Hck): 0.37
phosphorylation enrichment (FGFR3): 0.39
phosphorylation enrichment (Fes): 0.561
phosphorylation enrichment (EPHB1): 0.386
SH2 binding enrichment (SHP2-C SH2): 1.03
SH2 binding enrichment (Grb2 SH2): 0.744
SH2 binding enrichment (c-Src SH2): 0.81

Sequence: TWNPKYTLRSH [STRN3_Y474]
phosphorylation enrichment (Fer (mouse)): 0.378
phosphorylation enrichment (EPHB2): 0.468
phosphorylation enrichment (AncSZ): 0.614
phosphorylation enrichment (c-Src): 0.348
phosphorylation enrichment (c-Abl (mouse)): 0.473
phosphorylation enrichment (Fyn): 0.426
phosphorylation enrichment (MERTK): 0.409
phosphorylation enrichment (FGFR1): 0.433
phosphorylation enrichment (Jak2): 0.524
phosphorylation enrichment (Hck): 0.492
phosphorylation enrichment (FGFR3): 0.54
phosphorylation enrichment (Fes): 0.74
phosphorylation enrichment (EPHB1): 0.399
SH2 binding enrichment (SHP2-C SH2): 0.883
SH2 binding enrichment (Grb2 SH2): 1.11
SH2 binding enrichment (c-Src SH2): 0.943

Sequence: VAVVQYSGMGQ [COL6A1_Y878_T881M]
phosphorylation enrichment (Fer (mouse)): 0.407
phosphorylation enrichment (EPHB2): 0.363
phosphorylation enrichment (AncSZ): 0.554
phosphorylation enrichment (c-Src): 0.451
phosphorylation enrichment (c-Abl (mouse)): 0.62
phosphorylation enrichment (Fyn): 0.439
phosphorylation enrichment (MERTK): 0.524
phosphorylation enrichment (FGFR1): 0.44
phosphorylation enrichment (Jak2): 0.612
phosphorylation enrichment (Hck): 0.416
phosphorylation enrichment (FGFR3): 0.506
phosphorylation enrichment (Fes): 0.757
phosphorylation enrichment (EPHB1): 0.382
SH2 binding enrichment (SHP2-C SH2): 0.927
SH2 binding enrichment (Grb2 SH2): 0.763
SH2 binding enrichment (c-Src SH2): 0.603

Sequence: VFLGAYDHFLP [SLC22A5_Y486_R488H_YF]
phosphorylation enrichment (Fer (mouse)): 4.81
phosphorylation enrichment (EPHB2): 3.32
phosphorylation enrichment (AncSZ): 1.36
phosphorylation enrichment (c-Src): 3.29
phosphorylation enrichment (c-Abl (mouse)): 1.06
phosphorylation enrichment (Fyn): 3.08
phosphorylation enrichment (MERTK): 6.29
phosphorylation enrichment (FGFR1): 0.611
phosphorylation enrichment (Jak2): 0.726
phosphorylation enrichment (Hck): 2.73
phosphorylation enrichment (FGFR3): 0.811
phosphorylation enrichment (Fes): 0.955
phosphorylation enrichment (EPHB1): 1.8
SH2 binding enrichment (SHP2-C SH2): 1
SH2 binding enrichment (Grb2 SH2): 0.833
SH2 binding enrichment (c-Src SH2): 1.46

Sequence: VFSTDYFRVGG [NTRK2_Y706_YF]
phosphorylation enrichment (Fer (mouse)): 0.499
phosphorylation enrichment (EPHB2): 0.709
phosphorylation enrichment (AncSZ): 1.69
phosphorylation enrichment (c-Src): 0.757
phosphorylation enrichment (c-Abl (mouse)): 0.734
phosphorylation enrichment (Fyn): 0.464
phosphorylation enrichment (MERTK): 0.587
phosphorylation enrichment (FGFR1): 6.21
phosphorylation enrichment (Jak2): 8.12
phosphorylation enrichment (Hck): 0.459
phosphorylation enrichment (FGFR3): 3.75
phosphorylation enrichment (Fes): 0.859
phosphorylation enrichment (EPHB1): 0.826
SH2 binding enrichment (SHP2-C SH2): 0.697
SH2 binding enrichment (Grb2 SH2): 0.761
SH2 binding enrichment (c-Src SH2): 0.556

Sequence: VGTKRYMAPKV [ACVRL1_Y375_E379K]
phosphorylation enrichment (Fer (mouse)): 0.443
phosphorylation enrichment (EPHB2): 0.282
phosphorylation enrichment (AncSZ): 0.377
phosphorylation enrichment (c-Src): 0.304
phosphorylation enrichment (c-Abl (mouse)): 0.625
phosphorylation enrichment (Fyn): 0.301
phosphorylation enrichment (MERTK): 0.424
phosphorylation enrichment (FGFR1): 0.391
phosphorylation enrichment (Jak2): 0.482
phosphorylation enrichment (Hck): 0.327
phosphorylation enrichment (FGFR3): 0.372
phosphorylation enrichment (Fes): 0.456
phosphorylation enrichment (EPHB1): 0.274
SH2 binding enrichment (SHP2-C SH2): 1.44
SH2 binding enrichment (Grb2 SH2): 1.19
SH2 binding enrichment (c-Src SH2): 0.632

Sequence: VHNLDYFKKTT [FGFR3_Y647_YF]
phosphorylation enrichment (Fer (mouse)): 0.428
phosphorylation enrichment (EPHB2): 0.425
phosphorylation enrichment (AncSZ): 0.806
phosphorylation enrichment (c-Src): 0.523
phosphorylation enrichment (c-Abl (mouse)): 0.573
phosphorylation enrichment (Fyn): 0.471
phosphorylation enrichment (MERTK): 0.505
phosphorylation enrichment (FGFR1): 0.437
phosphorylation enrichment (Jak2): 0.857
phosphorylation enrichment (Hck): 0.46
phosphorylation enrichment (FGFR3): 0.617
phosphorylation enrichment (Fes): 0.91
phosphorylation enrichment (EPHB1): 0.512
SH2 binding enrichment (SHP2-C SH2): 0.678
SH2 binding enrichment (Grb2 SH2): 0.782
SH2 binding enrichment (c-Src SH2): 0.406

Sequence: VHNLNYFKKTT [FGFR3_Y647_D646N_YF]
phosphorylation enrichment (Fer (mouse)): 0.346
phosphorylation enrichment (EPHB2): 0.314
phosphorylation enrichment (AncSZ): 0.402
phosphorylation enrichment (c-Src): 0.425
phosphorylation enrichment (c-Abl (mouse)): 0.442
phosphorylation enrichment (Fyn): 0.302
phosphorylation enrichment (MERTK): 0.311
phosphorylation enrichment (FGFR1): 0.355
phosphorylation enrichment (Jak2): 0.467
phosphorylation enrichment (Hck): 0.347
phosphorylation enrichment (FGFR3): 0.369
phosphorylation enrichment (Fes): 0.607
phosphorylation enrichment (EPHB1): 0.36
SH2 binding enrichment (SHP2-C SH2): 0.678
SH2 binding enrichment (Grb2 SH2): 0.987
SH2 binding enrichment (c-Src SH2): 0.377

Sequence: VIVRMYDFHVL [RPF2_Y109_G106V_YF]
phosphorylation enrichment (Fer (mouse)): 4.04
phosphorylation enrichment (EPHB2): 1.55
phosphorylation enrichment (AncSZ): 1.08
phosphorylation enrichment (c-Src): 0.473
phosphorylation enrichment (c-Abl (mouse)): 0.885
phosphorylation enrichment (Fyn): 0.555
phosphorylation enrichment (MERTK): 1.87
phosphorylation enrichment (FGFR1): 0.462
phosphorylation enrichment (Jak2): 0.901
phosphorylation enrichment (Hck): 0.488
phosphorylation enrichment (FGFR3): 0.597
phosphorylation enrichment (Fes): 1.01
phosphorylation enrichment (EPHB1): 1.33
SH2 binding enrichment (SHP2-C SH2): 1.28
SH2 binding enrichment (Grb2 SH2): 1.75
SH2 binding enrichment (c-Src SH2): 1.12
